Experimental data: patent publication US20250357519A1, “APPLICATIONS OF O2-INSENSITIVE FORMATE DEHYDROGENASE” (UNIVERSITY OF MARYLAND, BALTIMORE, priority 2022, published 2025)

Tests used:
equine cytochrome c = assay: Reduction of equine cytochrome c by DvH-FDH2; assay type: biochemical
[1] = H2O2 production, Amplex Red (AR) method; assay type: biochemical, Desulfovibrio vulgaris Hildenborough; settings: aerobic DvH-FDH2 catalysis, AR assay
[2] = Phenazine ethosulfate (PES)/dichlorophenolindophenol (DCPIP) assay of formate oxidation by DvH-FDH2; assay type: biochemical, Desulfovibrio vulgaris Hildenborough; settings: PES/DCPIP-based
Text: FIG. 38. Experimental workflow for aerobic PES/DCPIP assay. Prepare cuvette (1), fill with reaction mix (2), add stirrer (3), initiate kinetics by the addition of DvH-FDH2 while the contents of the cuvette are being mixed (4), and continue data collection until completion (5). Blue arrows shown at the bottom in steps 4 and 5 denote stirring.
FIG. 39. Experimental workflow for anaerobic PES/DCPIP assay. Setup cuvette (1,2), add reaction mix (3), gas with argon (4), start the reaction by injecting DvH-FDH2 (5), and collect data until the reaction goes to completion (6). Blue arrows shown at the bottom in steps 4-6 represent stirring.
In this dye-linked assay, PES (Em,7=+65 mV) serves as the primary electron acceptor. Following its reduction by FDH2, PES nonenzymatically transfers electrons to a second dye, DCPIP, facilitating spectrophotometric detection.^91 Workflows are described in FIGS. 38 and 39. PES was chosen over PMS because of its long-term stability.^120 Furthermore, necessary precautions were taken in handling and preparing the reagents, including protecting the reagents from light.^187 DvH-FDH2 was assayed in 1 mM PES (Sigma-Aldrich P4544-1G)/93 μM DCPIP (98% pure; Acros 152870100) in 50 mM Tris pH 8.0. […] Assays were performed using a UV-2600i spectrophotometer (Shimadzu Life Sciences) equipped with T2 Peltier/stirrer accessory (Quantum) and monitored at 600 nm. […]

[3] = Oxygen consumption (Clark-type O2 electrode oximetry); assay type: biochemical, Desulfovibrio vulgaris Hildenborough
[4] = H2O2 production, coumarin boronic acid (CBA) assay; assay type: biochemical, Desulfovibrio vulgaris Hildenborough; settings: aerobic catalysis, formate between 1 and 10 Km
Description: Coumarin Boronic Acid (CBA) Assay. 10 mg of coumarin boronic acid (CBA) Cayman Chemicals 14051) was dissolved in 3.33 mL of DMSO. 101 μL of the CBA stock and 1.6 μL 0.5MDTPA were added to 3.9 mL 50 mM sodium phosphate pH 7.4 to produce a 2× working solution. The remaining steps essential identical to those used in the AR assay except that the plate was shaken at 400 rpm in an incubator (23° C.) for 15 min prior to CBA addition. Fluorescence detection was initiated by addition of 50 μL of the CBA 2× working solution, and the plate was scanned in fluorescence mode (excitation 332 nm and emission 470 nm). This method was also used in the context of redox bifurcation to quantify H2O2 production by DvH-FDH2 in the presence of 30 μM cytochrome c. Independently, the latter was incubated with H2O2 for the same duration (in the absence of DvH-FDH2) to assess the extent of peroxidase activity. Cytochrome c concentration was estimated as follows: oxidized ε410=106.1 mM^−1 cm^−1 and reduced ε550=29.5 mM^−1 cm^−1.
The following controls were common to both CBA and AR assays. (1) Heat-denatured DvH-FDH2, (2) addition of catalase (100 U/mL), (3) addition of SOD (10 U/mL), (4) FDH2 omitted, (5) fluorogenic substrate excluded, (6) formate excluded, and (7) buffer only.

B1: DvH-FDH2 (protein)
chain 1: MRMPRRTFIKLASASAGALAFAGLGQSLAPTVARAAELKIAKAKVTPSVCCFCAVGCGLLVYTDTQTGRSINIEGDPDHPTNEGTLCPKGASIWQTTERSKRVTKVLYRAPGAAAWEEKSWDWALPRIARKIKETRDATFELTNDKGQTVNRTRGIASVGSAAVDNEEGWLMQAMMRALGLVYIESHARIUHSSTVGALAESYGRGAMTNHWIDLKNSDVILIMGSNAAENHPISFKWVTRAQERGATLIHVDPRFTRTSAKADIHAHIRSGTDIAFFGGLIRYIMENDLFFRQYVVDYTNASYIVGADYGFADGLFTGFDAEKGTYNTKKWAFAADENGMTLKDPTLNDPRCVFQLMKAHYARYDRKTVSDVTGISEEQLATLWSTFASTGKPDRAGTILYAMGQCQHTVGVQNIRALSMIQLLLGNIGIAGGGVNALRGESNVQGTTDISLLCDNLSGYLPTPKASWATFDDYVKGTTPVDKDPKSANWWSNRGKYLASYMKSVYPTASHQDGYLWHPKVDDGKITDYSWLQIFERMSKGGFKGAFVWGQNPCAGGANAGKNRKAMETLDWMVVVNLFENESSLFWKGPGVDPAKVKTEVFFLPACMSVEKGGSIANSGRWLQWREPGPKPMGDSRSDGDIVLDLYDEIRKLYREEKGAFPEPVLALDTDYRTDGKYDHHKVAKTLNGKFLTDVTIGDKTYKAGQQVPGFAMLQADGSTTSGCWIFTGCYTDAGNMMARRDRTQTPEQAAIGLFPNWSYAWPANRRILYNRAAVDMTGKPFDPKRAVIAWNGEKWVGDVPDGGWKPGEKLPFIMIREGRGQLFGPGRVDGPFPEHYEPFESPLESHPFSKQRVNPTALAFSHEPKAVRDKRYPFICTTYRVTEQWQSGTMTRNTGWLKEMQPEGFCEISRELAKELGIANGDAVVLESLRGKVQVVAIVTPRLKPFKVMGEVMHEVGIPWQFGWGQHVGKGDSANLLSPSVGDPNTGIPETKVFMVNLRKA
chain 2: MRPLGSLPQGMRRVSRRHIREAYMNGKTFFIDQTRCTACRGCQAACKQWKKFGSIETRNTGSYQNPPDLGPSTFKLVRFNEVEVDGKLKWLFFPEQCRHCLEPPCKMVADALIPGAIVQDAETGAVLYTEKTKGLDYMEVRSACPYDIPRQDPATGLLTKCNMCIDRVQNGMLPACVKTCPTGTMHFGDRADMLELAQKRLGEVKKRSPAALLADSDLVRVLYLCELAPANYHSHMVAEADTSRIGPFSRRALLRLRPFA
modifications: non-natural residues; left off: small tags and cut ends
native equine cytochrome c reduction (equine cytochrome c; anaerobic conditions): stoichiometric reduction
native equine cytochrome c reduced (equine cytochrome c; in air, 30 μM cytochrome c, 10 μM formate): ~80%
H2O2 produced per mole of formate oxidized [1]: roughly 0.75 mol
kcat/Km for formate oxidation, fold higher than aerotolerant Mo-Cys-FDH from Rhodobacter capsulatus (NAD^+) [2]: ~500 fold
electron flux towards hydrogen peroxide generation (u/v value) ([3]; oximetry, catalase added after equilibrium): ~80%
fraction of electrons from formate ending up in H2O2 (x/y value) ([3]; oximetry, catalase added after equilibrium, likely an underestimate): roughly one quarter
O2 uptake lower in presence of catalase (initial velocities) ([3]; presence vs absence of catalase): 50%
H2O2 production [4]: 64±6%
